Measured values as given in the DeepSol protein solubility set.

Test: soluble on expression in E. coli; label from the status in PepcDB or PDB records

Sequence | soluble on expression in E. coli
MRGSHHHHHHGSACELVREMEGVDYLADERKKAGFDVDEMKIVWAGSRHDFELTDRISKLVASDPGFSKEGRTMLPRKELFKNTLRKAAYAWKRIIELRLSQEEATMLRRYVDEPAFTDLHWGMFIPAIKGQGTDKQQEKWLPLAYKMQIIGCYAQTELGHGSNVQGLETTATFDPQTDEFVIHSPTLTSSKWWPGGLGKVSTHAVVYARLITDGKDYGVNGFIVQLRSLEDHKPLPGVTVGDIGMKFGNGAYNSMDNGVLSFDHVRIPRDQMLMRVSQVTKEGKYVQSDIPRQLLYGTMVYVRQSIVADASLAMSRAVCIATRYSAVRRQFGSQNGGQETQVIDYKTQQNRLFPLLASAYAFRFVGEWLKWLYTDVTQRLAANDFSTLPEAHACTAGLKSLTTSATADGIEECRKLCGGHGYLCSSGLPELFAVYVPACTYEGDNVVLQLQVARFLMKTISQLGTGKKPVGTVSYMGRIEHLMQCRSDVKQAEDWLKPSAVLEAFEARSARMSVACAKNLSKFENQEEGFAELAADLVEAAVAHCQLIVVSKYIEKLQQNIPGKGVKQQLEVLCGIYSLFILHKHQGDFLGTGYITSKQGSLANDQLRALYSQLRPNAVSLVDAFNYTDHYLGSILGRYDGNVYPKLYEAAWKDPLNKSDIADGFHEYIRPLLKQQLRTAKL | soluble
MPCSEETPAISPSKRARPAEVGGMQLRFARLSEHATAPTRGSARAAGYDLYSAYDYTIPPMEKAVVKTDIQIALPSGCYGRVAPRSGLAAKHFIDVGAGVIDEDYRGNVGVVLFNFGKEKFEVKKGDRIAQLICERIFYPEIEEVQALDDTERGSGGFGSTGKN | soluble
MSLKEFYIGDQFYLDGEPFKILSGAIHYFRVHPDDWYHSLYNLKALGFNTVETYVPWNMHEPRKGEFCYEGILDIERFLKLAQELGLYAIVRPSPYICAEWEWGGLPAWLMKEELRVRSSDSVYLQHLDEYYVSLIPKLAKLQLAQGGNVLMFQVENEYGSYGEEKAYLRAVAGLMRKHGLTAPLFTSDGSWRATLRAGTLIEDDVFVTGNFGSKARENFANMTAFFNEHQKNWPLMCMEFWDGWFNRWGDEIIRREPEEMVDSVMECIELGSLNLYMFHGGTNFGFMNGCSARGQIDLPQVTSYDYDAILDEAGNPTKKFYILQQRLKEVYPELEYAEPLVKEAKAFSDVSLHDKVSLFATLENVSDCVKGFYPKNMEELDQSTGYILYRTELERDKTEAERFRVVDARDRIQIYADGKFVATQYQTEIGDDVELDFKDDKLTLDILVENMGRVNYGHKLTAPTQSKGIGRGAMADLHFIGHWETYPLHLESVEDLDFSKGWEEGQAAFYRYQFELDELADTYLDMTGFGKGVVFVNNVNIGRFWEKGPILYLYIPKGYLKKGANEIVVFETEGKYREKIHFSQRPVIKDLEGHHHHHH | soluble
MAKDIYKTFKRSVSGIVGGNNINGEGSSSPSTSAPQVKYRGGTGRTWIHPPDYLINGHVEYVARFLGCVETPKANGSDVAREAIHAIRFQRDLKRSEQTRETAKLQKVEIRISIDNVIIADIKTKAPMYTFPLGRISFCADDKDDKRMFSFIARAEGASGKPSCYAFTSEKLAEDITLTIGEAFDLAYKRFLDKNRTSLENQKQIYILKKKIVELETENQVLIERLAEALRANSKADYENTGPPIYPGLGPPALPLSPMPQGPPPNIPPSSIYSMPRANDLPPTEMAPTLPQISTSSNGASPSVSPASTSPSGPAPSIPPPRPPALAPPPPVAPRRNPVVSPKNSTAGLLDGLELGSAEPAKKAPSNIFDDSFDPRAGEKKSTAAEYNPFGADFLSGIQNGKEAPPSASAELLASEAIARLPKPESSSVPPKKTAAEYDAMINEVEKKLAAMSSGSFEFGQLQTGDLGGIEGESDYGTPSDRLNPKMMNLKQ | not soluble
SSAKSAISKEIFAPLDERMLGAVQVKRRTKKKIPFLATGGQGEYLTYICLSVTNKKPTQASITKVKQFEGSTSFVRRSQWMLEQLRQVNGIDPNGDSAEFDLLFENAFDQWVASTASEKCTFFQILHHTCQRYLTDRKPEFINCQSKIMGGNSILHSAADSVTSAVQKASQALNERGERLGRAEEKTEDLKNSAQQFAETAHKLAMKHKC | soluble
MDKEVTNIVLKRHDSIVKGAQDDREYRGLELTNGIRVLLVSDPTTDKSAAALDVKVGHLMDPWELPGLAHFCEHMLFLGTAKYPTENEYSKFLTDNAGHRNAVTASDHTNYHFDVKPDQLRGALDRFVQFFLSPQFTESATEREVCAVDSEHSNNLNNDLWRLSQVDRSLSKPGHDYAKFGTGNKKTLLEEARKKGVEPRDALLQFYKKWYSSNIMTCCIIGKESLDVLQSHLKTLEFDTIENKKVERKVWNENPYGPEQLGKRIDRKFFAHLIRHKGPGSLLVELKRLGWVNSLKSDSNTIAAGFGILNVTMDLSTGGLENVDEIIQLMLNYIGMLKSFGPQQWIHDELADLSDVKFRFKDKEQPMKMAINIAASLQYIPIEHILSSRYLLTKYEPERIKELLSTLTPSNMLVRVVSQKFKEQEGNTNEPVYGTEMKVTDISPEKMKKYENALKTSHHALHLPEKNEYIATNFGQKPRESVKNEHPKLISDDGWSRVWFKQDDEYNMPKQETKFALTTPIVSQNPRISLISSLWLWCFCDILSEETYNAALAGLGCQFELSPFGVQKQSTDGREAERHASLTLHVYGYDEKQPLFVKHLTSCMINFKIDRTRFEVLFESLKRTLTNHAFSQPYLLTQHYNQLLIVDKVWSKEQLLAVCDSVTLENVQGFAREMLQAFHMELFVHGNSTEKEAIQLSKELMDILKSAAPNSRPLYRNEHNPRREFQLNNGDEYIYRHLQKTHDAGCVEVTYQIGVQNKYDNAVVGLIDQLIKEPVFDTLRTNEALGYIVWTGCRFNCGAVALNIFVQGPKSVDYVLERIEVFLESVRKEIIEMPQDEFEKKVAGMIARLEEKPKTLSNRFKRFWYQIECRQYDFARREKEVKVLKSIGKDDVIALFDKKIRKNAVERRKLVVLVHGKIDDQETLNRIIKKNVESGKKEKEILNLDQLRQSLPVYDLPNAAIDLKPIGVDPLEQKESATVQ | not soluble
MRYQKLEIQEANWQWKYLLKKHREGENITKHTEQSLIELKVQFLTTLQHSPAEIEQWIKAEMTAEQRKRMRQSIRAKRKRFFNAEKLTTKKKSIDLDYASWLRLSKYSKTHAMTLSETINHLIDERENQHLYSEQMAKMKASLKDLLK | not soluble
KKVVFFGVGAVGATFAEQFFNSKYDFKILCDNERKKRYLEEGFIINGKRYDFDYVTKDEYKQEADFIIIGLKYNNLKENIKELDGLVGKNTVIMSLLNGVDSEEIIGERFGIEKMVYSYVTNIDAKKINNNIIHTTNGIIVFGNKDNSEDRKTNIITEVFDDVNIEYTLSKDIQRDMWWKYMVNI | not soluble
MEIKRQQEIVEAYHYDMRVPDSEVETDLRVSFSPIEVEEENYPENSSALVARLEFRIVFDEFVLSGAISQINHIIDRKIEKQEDISQEEVDELVRPLFSIVERLSYEVTEIALDRPGVQLNFQQSEEA | not soluble
MSTQYLNSNLKVFSLNSNKELAEQIAKHIGVGLGKCSVDRFSDGEVQINIEESIRGCDVFIIQSTSFPVNEHIMELLIMIDALKRASAKTINIVIPYYGYARQDRKARSREPITSKLVANLLETAGATRVITLDLHAPQIQGFFDIPIDHLMGVPILSDYFETKGLKDIVIVSPDHGGVTRARKMADRLKAPIAIIDKRRPRPNVSEVMNIIGNIEGKTAILIDDIIDTAGTITLAANALVENGASEVYACCTHPVLSGPAIERIQNSNIKELVVTNSIVLPEEKKIDKVHELSVAPLIGEAIIRVYEEESVSVLFN | not soluble
MGSDKIHHHHHHMTTILQLSDLHIGPHNDEKDQKTYDLIHHMMTHYQPDITVLTGDQIWSEGVIDSGRVYKKLMEYLNRYDTQIATTFGNHDTEGHLKRSDLRAIEDQYSTNYVQKNHSLIVDDKEAYTIEVVNNDTVTHVLYVIDGGDYNPFGIGDYDFIRPEHVNWLRETHQAYQTQFQHNFQHNLLFTHIPLQEYREVENIGEYHGIFNEPIACSKINSGLFSQMLLNGDIEGMFCGHDHDNDFTINLYGIRLSFGRIGGYNTYGDLQRGARLIELQPDAIYKSKVLEFDDRF | not soluble
